Measured values taken from patent publication US20180201681A1.

Experiments:
[1] = target: human CD83 on the cell surface (KM-H2, L428, FDCP1 and BB88 cells transfected with full length human CD83) (human) (UniProt Q01151); assay: competition by flow cytometry on KM-H2 cells, antibodies added at the same time; reduction of the 3C12-RPE signal in the presence of HB15a-FITC
[2] = target: human CD83 on the cell surface (KM-H2, L428, FDCP1 and BB88 cells transfected with full length human CD83) (human) (UniProt Q01151); assay: flow cytometry on the CD83+ cell line KM-H2, background control

human CD83 on the cell surface (KM-H2, L428, FDCP1 and BB88 cells transfected with full length human CD83) (human), sequence (Q01151 20-205): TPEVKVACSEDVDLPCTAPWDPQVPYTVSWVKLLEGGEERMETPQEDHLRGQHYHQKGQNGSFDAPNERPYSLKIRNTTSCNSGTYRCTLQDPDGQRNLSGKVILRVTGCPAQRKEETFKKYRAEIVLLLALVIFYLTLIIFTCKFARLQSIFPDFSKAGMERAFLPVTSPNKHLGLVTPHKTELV

Row | Reduction in 3C12 MFI (%) [1] | MFI [2] | Substance
1 | 24.7% |  | HB15a (commercial anti-human CD83 mAb, Immunotech) (antibody)
2 |  | 335 MFI | isotype control (human IgG1) (antibody)
